According to US20060070134:

Molecular target: Human E1 (ubiquitin-activating enzyme) (UniProt P22314)
UniProt P22314, sequence (P22314 whole entry): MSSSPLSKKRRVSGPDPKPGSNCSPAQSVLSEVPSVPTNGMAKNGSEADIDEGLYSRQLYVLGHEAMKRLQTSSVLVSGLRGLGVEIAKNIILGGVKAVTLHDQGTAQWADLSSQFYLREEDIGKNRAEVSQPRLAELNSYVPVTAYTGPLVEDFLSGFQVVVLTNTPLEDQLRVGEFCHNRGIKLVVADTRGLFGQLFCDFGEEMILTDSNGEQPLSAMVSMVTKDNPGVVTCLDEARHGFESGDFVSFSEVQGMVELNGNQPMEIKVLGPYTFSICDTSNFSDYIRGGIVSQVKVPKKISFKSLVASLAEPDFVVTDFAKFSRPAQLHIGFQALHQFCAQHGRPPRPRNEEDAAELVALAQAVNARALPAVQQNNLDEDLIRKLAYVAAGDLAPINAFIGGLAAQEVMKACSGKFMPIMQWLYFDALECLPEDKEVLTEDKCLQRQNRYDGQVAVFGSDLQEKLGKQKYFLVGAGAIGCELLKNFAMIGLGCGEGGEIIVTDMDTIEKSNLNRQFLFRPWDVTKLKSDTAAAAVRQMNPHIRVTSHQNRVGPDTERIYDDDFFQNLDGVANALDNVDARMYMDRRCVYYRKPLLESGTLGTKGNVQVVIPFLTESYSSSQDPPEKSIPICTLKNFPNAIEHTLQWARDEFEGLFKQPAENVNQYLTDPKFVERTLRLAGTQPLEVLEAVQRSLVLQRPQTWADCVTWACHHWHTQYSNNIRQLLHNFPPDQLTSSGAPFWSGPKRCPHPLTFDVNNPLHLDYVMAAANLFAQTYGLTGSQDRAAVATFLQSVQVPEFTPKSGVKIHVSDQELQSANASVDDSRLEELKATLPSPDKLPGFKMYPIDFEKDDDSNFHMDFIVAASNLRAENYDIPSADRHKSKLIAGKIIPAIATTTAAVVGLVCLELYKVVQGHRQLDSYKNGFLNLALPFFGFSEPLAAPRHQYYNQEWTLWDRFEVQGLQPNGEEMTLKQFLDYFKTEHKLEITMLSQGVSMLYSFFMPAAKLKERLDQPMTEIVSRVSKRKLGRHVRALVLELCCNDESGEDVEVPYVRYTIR

With FLJ11011v2 the “ubiquitinylation reaction, anti-Ub western blot” value was “FLJ11011v2 is efficiently ubiquitinylated in this assay”.
